Measurements taken from paper PMC11750923, “High-affinity ssDNA aptamer and chemiluminescent aptasensor for TIMP-1 detection in human serum”.

Target: TIMP-1 (tissue inhibitor of metalloproteinases 1) (human, UniProt P01033 24-207)
Assay: BLI; DPBS + 0.025% Tween 20; kon 1.30e6 M-1 s-1, koff 5.36e-4 s-1; 1:1 with mass transport; DPBS (138 mM NaCl, 2.67 mM KCl, 8.1 mM Na2HPO4, 1.47 mM KH2PO4, 1 mM CaCl2, 0.5 mM MgCl2); BLI with 0.025% Tween 20; pH and temperature not stated
Conditions: protein: commercial; tags: His; label: biotin (BLI); hairpin

TIMP-1 (tissue inhibitor of metalloproteinases 1), sequence (P01033 24-207): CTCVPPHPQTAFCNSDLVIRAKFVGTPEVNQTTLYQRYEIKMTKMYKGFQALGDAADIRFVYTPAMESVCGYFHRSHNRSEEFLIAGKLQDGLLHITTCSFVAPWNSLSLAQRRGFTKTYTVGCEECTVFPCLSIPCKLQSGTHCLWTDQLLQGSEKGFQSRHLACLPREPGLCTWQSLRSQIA

B1: Apt-4 (ssDNA)
DNA: CACGCATAGCGCCCCAACCCCAGTCGATGAAATTGCGTCGCGGGTGCCTATGCGTG
Kd: 0.41 nM
